These results are taken from US20080045455A1 (TRANSTECH PHARMA, published 2008).

Where only a bound is given, the exact number is not on record here.

Assay [1] concerns the target Fc receptor on THP-1 cells. Kind of assay: cell-based or functional assay.
A further assay concerns the target T1, BSA (UniProt P02769 25-607).
T1 construct: also called BSA coating alone; BSA+wash
Kind of assay: ELISA, BSA-coated Maxisorb plate, dilutions of fusion protein, anti-human IgG1 immunodetection complex, A405. How it is done:
Known RAGE ligands were coated onto the surface of Maxisorb plates at a concentration of 5 micrograms per well. Plates were incubated at 4° C. overnight. Following ligand incubation, plates were aspirated and a blocking buffer of 1% BSA in 50 mM imidizole buffer (pH 7.2) was added to the plates for 1 hour at room temperature. The plates were then aspirated and/or washed with wash buffer (20 mM Imidizole, 150 mM NaCl, 0.05% Tween-20, 5 mM CaCl₂ and 5 mM MgCl₂, pH 7.2). […] The RAGE fusion protein was added at increasing dilutions of the initial sample. The RAGE fusion protein was allowed to incubate with the immobilized ligand at 37° C. for one hour after which the plate was washed and assayed for binding of the RAGE fusion protein. Binding was detected by the addition of an immunodetection complex containing a monoclonal mouse anti-human IgG1 diluted 1:11,000 to a final assay concentration (FAC) of 21 ng/100 μL, a biotinylated goat anti-mouse IgG diluted 1:500, to a FAC of […], and an avidin-linked alkaline phosphatase. […] Binding of the complex to the immobilized RAGE fusion protein was quantified by measuring conversion of PNPP to para-nitrophenol (PNP) which was measured spectrophotometrically at 405 nm.
In general terms: ELISA stands for enzyme-linked immunosorbent assay.

T1 sequence (P02769 25-607 limits assumed): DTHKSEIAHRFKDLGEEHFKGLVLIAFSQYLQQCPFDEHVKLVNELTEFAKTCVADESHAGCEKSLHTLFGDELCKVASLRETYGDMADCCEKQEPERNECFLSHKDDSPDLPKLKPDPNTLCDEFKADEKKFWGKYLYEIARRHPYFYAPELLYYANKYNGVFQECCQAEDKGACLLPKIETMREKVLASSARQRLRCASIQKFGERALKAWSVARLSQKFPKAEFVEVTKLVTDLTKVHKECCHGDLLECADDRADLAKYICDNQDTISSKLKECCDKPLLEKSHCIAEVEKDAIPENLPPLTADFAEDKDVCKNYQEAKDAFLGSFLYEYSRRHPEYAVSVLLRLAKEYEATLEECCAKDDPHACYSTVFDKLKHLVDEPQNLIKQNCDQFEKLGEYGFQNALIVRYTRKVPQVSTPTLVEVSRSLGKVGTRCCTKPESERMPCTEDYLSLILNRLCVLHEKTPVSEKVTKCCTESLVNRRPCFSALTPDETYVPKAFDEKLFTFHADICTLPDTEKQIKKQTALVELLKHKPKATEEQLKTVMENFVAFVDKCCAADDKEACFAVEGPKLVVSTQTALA

human IgG1 (heat aggregated) (antibody): in assay [1], the TNF-α secreted by THP-1 cells on wells coated with 10 ug/well heat aggregated protein is above 40 ng/well.

B1: RAGE fusion protein TTP-3000 (Fc fusion)
chain: QNITARIGEPLVLKCKGAPKKPPQRLEWKLNTGRTEAWKVLSPQGGGPWDSVARVLPNGSLFLPAVGIQDEGIFRCQAMNRNGKETKSNYRVRVYQIPGKPEIVDSASELTAGPSVFLFPPKPKDTLMISRTPEVTCVVVDVSHEDPEVKFNWYVDGVEVHNAKTKPREEQYNSTYRVVSVLTVLHQDWLNGKEYKCKVSNKALPAPIEKTISKAKGQPREPQVYTLPPSRDELTKNQVSLTCLVKGFYPSDIAVEWESNGQPENNYKTTPPVLDSDGSFFLYSKLTVDKSRWQQGNVFSCSVMHEALHNHYTQKSLSLSPGK
modifications: N-terminal residue may be glutamine (Q) or pyroglutamic acid (pE) or a mixture thereof; C-terminal residue may be cleaved off
notes: the N-terminus of TTP-3000 was not confirmed by experiment; also called TT3; three domain RAGE fusion protein
For B1, the binding result with BSA is recorded as “no binding”.

B2: RAGE fusion protein TTP-4000 (Fc fusion)
chain: QNITARIGEPLVLKCKGAPKKPPQRLEWKLNTGRTEAWKVLSPQGGGPWDSVARVLPNGSLFLPAVGIQDEGIFRCQAMNRNGKETKSNYRVRVYQIPGKPEIVDSASELTAGVPNKVGTCVSEGSYPAGTLSWHLDGKPLVPNEKGVSVKEQTRRHPETGLFTLQSELMVTPARGGDPRPTFSCSFSPGLPRHRALRTAPIQPRVWEPVPLEEVQLVVEPEGGAVAPPSVFLFPPKPKDTLMISRTPEVTCVVVDVSHEDPEVKFNWYVDGVEVHNAKTKPREEQYNSTYRVVSVLTVLHQDWLNGKEYKCKVSNKALPAPIEKTISKAKGQPREPQVYTLPPSRDELTKNQVSLTCLVKGFYPSDIAVEWESNGQPENNYKTTPPVLDSDGSFFLYSKLTVDKSRWQQGNVFSCSVMHEALHNHYTQKSLSLSPGK
modifications: N-terminal residue glutamine (Q) or pyroglutamic acid (pE) or a mixture thereof; glycosylation sites at N2 and N288 (numbering of SEQ ID NO: 34 or 56); C-terminal residue of CH3 may be cleaved off
notes: Produced in CHO cells; also called TT4; four domain RAGE fusion protein
As to B2, in the assay with BSA, the binding result is recorded as “no binding”.
